# T1: FcγRIIb extracellular domain with C-terminal His tag (human, UniProt P31994 43-217)
# T1 construct: extracellular domain; soluble receptor expressed in FreeStyle293 cells, used as analyte in Biacore; also called FcgRIIb; 2b; not shown: His tag attached to the C terminus
# T1 sequence (looked up): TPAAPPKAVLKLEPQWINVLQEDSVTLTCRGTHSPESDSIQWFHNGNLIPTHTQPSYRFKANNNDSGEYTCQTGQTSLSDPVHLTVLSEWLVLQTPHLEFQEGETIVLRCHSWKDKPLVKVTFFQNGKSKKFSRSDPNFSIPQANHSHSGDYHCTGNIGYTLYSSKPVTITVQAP
# B1: GpH7-A5/GpH7-B3 variant P271_03V/GpL16-k0 (antibody, human IgG1, kappa)
# heavy 1: not shown
# heavy 2: not shown
# light: DIVMTQSPLSLPVTPGEPASISCQASESLVHSNRNTYLHWYLQKPGQSPQLLIYKVSNRFSGVPDRFSGSGSGTDFTLKISRVEAEDVGVYYCSQNTHVPPTFGQGTKVEIERTVAAPSVFIFPPSDEQLKSGTASVVCLLNNFYPREAKVQWKVDNALQSGNSQESVTEQDSKDSTYSLSSTLTLSKADYEKHKVYACEVTHQGLSSPVTKSFNRGEC
# notes: heterodimerized anti-glypican-3 IgG1; alteration in the GpH7-B3 chain only; also called He Ab
# B2: GpH7-A5/GpH7-B3 variant P271_20W/GpL16-k0 (antibody, human IgG1, kappa)
# heavy 1: not shown
# heavy 2: not shown
# light: DIVMTQSPLSLPVTPGEPASISCQASESLVHSNRNTYLHWYLQKPGQSPQLLIYKVSNRFSGVPDRFSGSGSGTDFTLKISRVEAEDVGVYYCSQNTHVPPTFGQGTKVEIERTVAAPSVFIFPPSDEQLKSGTASVVCLLNNFYPREAKVQWKVDNALQSGNSQESVTEQDSKDSTYSLSSTLTLSKADYEKHKVYACEVTHQGLSSPVTKSFNRGEC
# notes: as for B1
# B3: GpH7-A5/GpH7-B3 variant Q295_09D/GpL16-k0 (antibody, human IgG1, kappa)
# heavy 1: not shown
# heavy 2: not shown
# light: DIVMTQSPLSLPVTPGEPASISCQASESLVHSNRNTYLHWYLQKPGQSPQLLIYKVSNRFSGVPDRFSGSGSGTDFTLKISRVEAEDVGVYYCSQNTHVPPTFGQGTKVEIERTVAAPSVFIFPPSDEQLKSGTASVVCLLNNFYPREAKVQWKVDNALQSGNSQESVTEQDSKDSTYSLSSTLTLSKADYEKHKVYACEVTHQGLSSPVTKSFNRGEC
# notes: as for B1
# B4: GpH7-A5/GpH7-B3 variant P271_16H/GpL16-k0 (antibody, human IgG1, kappa)
# heavy 1: not shown
# heavy 2: not shown
# light: DIVMTQSPLSLPVTPGEPASISCQASESLVHSNRNTYLHWYLQKPGQSPQLLIYKVSNRFSGVPDRFSGSGSGTDFTLKISRVEAEDVGVYYCSQNTHVPPTFGQGTKVEIERTVAAPSVFIFPPSDEQLKSGTASVVCLLNNFYPREAKVQWKVDNALQSGNSQESVTEQDSKDSTYSLSSTLTLSKADYEKHKVYACEVTHQGLSSPVTKSFNRGEC
# notes: as for B1
# B5: GpH7-A5/GpH7-B3 variant P329_01G/GpL16-k0 (antibody, human IgG1, kappa)
# heavy 1: not shown
# heavy 2: not shown
# light: DIVMTQSPLSLPVTPGEPASISCQASESLVHSNRNTYLHWYLQKPGQSPQLLIYKVSNRFSGVPDRFSGSGSGTDFTLKISRVEAEDVGVYYCSQNTHVPPTFGQGTKVEIERTVAAPSVFIFPPSDEQLKSGTASVVCLLNNFYPREAKVQWKVDNALQSGNSQESVTEQDSKDSTYSLSSTLTLSKADYEKHKVYACEVTHQGLSSPVTKSFNRGEC
# notes: as for B1
# B6: GpH7-A5/GpH7-B3 variant Q295_07I/GpL16-k0 (antibody, human IgG1, kappa)
# heavy 1: not shown
# heavy 2: not shown
# light: DIVMTQSPLSLPVTPGEPASISCQASESLVHSNRNTYLHWYLQKPGQSPQLLIYKVSNRFSGVPDRFSGSGSGTDFTLKISRVEAEDVGVYYCSQNTHVPPTFGQGTKVEIERTVAAPSVFIFPPSDEQLKSGTASVVCLLNNFYPREAKVQWKVDNALQSGNSQESVTEQDSKDSTYSLSSTLTLSKADYEKHKVYACEVTHQGLSSPVTKSFNRGEC
# notes: as for B1
# B7: GpH7-A5/GpH7-B3 variant Q295_01G/GpL16-k0 (antibody, human IgG1, kappa)
# heavy 1: not shown
# heavy 2: not shown
# light: DIVMTQSPLSLPVTPGEPASISCQASESLVHSNRNTYLHWYLQKPGQSPQLLIYKVSNRFSGVPDRFSGSGSGTDFTLKISRVEAEDVGVYYCSQNTHVPPTFGQGTKVEIERTVAAPSVFIFPPSDEQLKSGTASVVCLLNNFYPREAKVQWKVDNALQSGNSQESVTEQDSKDSTYSLSSTLTLSKADYEKHKVYACEVTHQGLSSPVTKSFNRGEC
# notes: as for B1
# B8: GpH7-A5/GpH7-B3 variant P329_02A/GpL16-k0 (antibody, human IgG1, kappa)
# heavy 1: not shown
# heavy 2: not shown
# light: DIVMTQSPLSLPVTPGEPASISCQASESLVHSNRNTYLHWYLQKPGQSPQLLIYKVSNRFSGVPDRFSGSGSGTDFTLKISRVEAEDVGVYYCSQNTHVPPTFGQGTKVEIERTVAAPSVFIFPPSDEQLKSGTASVVCLLNNFYPREAKVQWKVDNALQSGNSQESVTEQDSKDSTYSLSSTLTLSKADYEKHKVYACEVTHQGLSSPVTKSFNRGEC
# notes: as for B1
# B9: GpH7-A5/GpH7-B3 variant Q295_03V/GpL16-k0 (antibody, human IgG1, kappa)
# heavy 1: not shown
# heavy 2: not shown
# light: DIVMTQSPLSLPVTPGEPASISCQASESLVHSNRNTYLHWYLQKPGQSPQLLIYKVSNRFSGVPDRFSGSGSGTDFTLKISRVEAEDVGVYYCSQNTHVPPTFGQGTKVEIERTVAAPSVFIFPPSDEQLKSGTASVVCLLNNFYPREAKVQWKVDNALQSGNSQESVTEQDSKDSTYSLSSTLTLSKADYEKHKVYACEVTHQGLSSPVTKSFNRGEC
# notes: as for B1
# B10: GpH7-A5/GpH7-B3 variant P271_15Y/GpL16-k0 (antibody, human IgG1, kappa)
# heavy 1: not shown
# heavy 2: not shown
# light: DIVMTQSPLSLPVTPGEPASISCQASESLVHSNRNTYLHWYLQKPGQSPQLLIYKVSNRFSGVPDRFSGSGSGTDFTLKISRVEAEDVGVYYCSQNTHVPPTFGQGTKVEIERTVAAPSVFIFPPSDEQLKSGTASVVCLLNNFYPREAKVQWKVDNALQSGNSQESVTEQDSKDSTYSLSSTLTLSKADYEKHKVYACEVTHQGLSSPVTKSFNRGEC
# notes: as for B1
# Experiments:
# [1] = target: T2, FcγRIa extracellular domain with C-terminal His tag (human, UniProt P12314 16-292); assay: SPR (Biacore), antibody captured on antigen peptide chip, FcγR as analyte; relative binding
# T2 construct: extracellular domain; soluble receptor expressed in FreeStyle293 cells, used as analyte in Biacore; also called FcgRI; 1a; not shown: His tag attached to the C terminus
# [2] = target: T1, FcγRIIb extracellular domain with …; assay: as above
# T2 sequence (P12314 16-292): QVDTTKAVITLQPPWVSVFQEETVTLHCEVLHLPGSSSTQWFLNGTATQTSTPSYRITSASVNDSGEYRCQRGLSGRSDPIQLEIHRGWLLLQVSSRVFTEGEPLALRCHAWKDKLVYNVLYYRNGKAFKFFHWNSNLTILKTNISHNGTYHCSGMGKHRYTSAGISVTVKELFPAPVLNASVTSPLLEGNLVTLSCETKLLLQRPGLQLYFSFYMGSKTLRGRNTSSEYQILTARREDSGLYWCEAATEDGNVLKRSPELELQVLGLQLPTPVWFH
Binder,He/Con_1a [1],He/Con_2b [2]
B1,102 % of control GpH7-A5/GpH7-B3/GpL16-k0 (=100),74.8 % of control GpH7-A5/GpH7-B3/GpL16-k0 (=100)
B2,103 % of control GpH7-A5/GpH7-B3/GpL16-k0 (=100),58.1 % of control GpH7-A5/GpH7-B3/GpL16-k0 (=100)
B3,100 % of control GpH7-A5/GpH7-B3/GpL16-k0 (=100),60.8 % of control GpH7-A5/GpH7-B3/GpL16-k0 (=100)
B4,102 % of control GpH7-A5/GpH7-B3/GpL16-k0 (=100),67.9 % of control GpH7-A5/GpH7-B3/GpL16-k0 (=100)
B5,101 % of control GpH7-A5/GpH7-B3/GpL16-k0 (=100),41.7 % of control GpH7-A5/GpH7-B3/GpL16-k0 (=100)
B6,103 % of control GpH7-A5/GpH7-B3/GpL16-k0 (=100),84.3 % of control GpH7-A5/GpH7-B3/GpL16-k0 (=100)
B7,97.6 % of control GpH7-A5/GpH7-B3/GpL16-k0 (=100),46 % of control GpH7-A5/GpH7-B3/GpL16-k0 (=100)
B8,102 % of control GpH7-A5/GpH7-B3/GpL16-k0 (=100),40.5 % of control GpH7-A5/GpH7-B3/GpL16-k0 (=100)
B9,104 % of control GpH7-A5/GpH7-B3/GpL16-k0 (=100),75.7 % of control GpH7-A5/GpH7-B3/GpL16-k0 (=100)
B10,103 % of control GpH7-A5/GpH7-B3/GpL16-k0 (=100),52.3 % of control GpH7-A5/GpH7-B3/GpL16-k0 (=100)

# — patent US20180155451A1 (published 2018)
